In assay [1] the target is HLA-DRA*01:01 W168R / HLA-DRB1*04:01 F31V/H33N. Kind of assay: BLI.
Assay [2] has as its target HLA-DRA*01:01 No mut. / HLA-DRB1*04:01 F31V/H33N. As to the kind of experiment: BLI.
Assay [3] concerns the target HLA-DRA*01:01 W168R / HLA-DRB1*04:01 No mut. Kind of assay: BLI.
Assay [4] concerns the target HLA-DRA*01:01 W168R / HLA-DRB1*04:01 F31I/H33N. As to the kind of experiment: BLI.
For assay [5], the target named is HLA-DRA*01:01 No mut. / HLA-DRB1*04:01 F31I/H33N. As to the kind of experiment: BLI.
In assay [6] the target is T1, recombinant HLA-DR (DRA*01:01/DRB1*04:01) with covalently attached Influenza Hemagglutinin (HA) peptide (human;Influenza). Kind of assay: BLI.
Assay [7] has as its target T1, recombinant HLA-DR …. As to the kind of experiment: BLI. This is another data set of the same source.
The next assay addresses BJAB cells (human, UniProt P01903 26-254). As to the kind of experiment: flow.
Assay [8] has as its target T1, recombinant HLA-DR …. As to the kind of experiment: BLI. This is another data set of the same source.

Like-named read-outs stand apart in the source and are kept apart here.

Chain of BJAB cells (P01903 whole entry): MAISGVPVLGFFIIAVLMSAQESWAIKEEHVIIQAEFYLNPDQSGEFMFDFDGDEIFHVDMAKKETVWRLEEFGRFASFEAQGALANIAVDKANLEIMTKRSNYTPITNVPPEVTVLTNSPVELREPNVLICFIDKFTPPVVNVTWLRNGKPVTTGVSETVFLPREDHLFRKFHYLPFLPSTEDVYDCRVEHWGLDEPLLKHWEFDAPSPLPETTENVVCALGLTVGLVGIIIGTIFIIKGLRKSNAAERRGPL

B1: 44H10 (antibody, V domains shown)
VH: QVQLKESGPGLVAPSQSLSITCTVSGFSLTSYGVHWVRQPPGKGLEWLGVIWAGGSINYNSALMSRLSISKDNFKSQVFLKMSSLQTDDTAMYYCARAYGDYVHYAMDYWGQGTSVTASS
VL: DIQMTQSPSSLSASLGQRVSLTCRASQEISGYLTWLQQKPDGTIKRLVYAASTLDSGVPKRFSGSRSGSDYSLTISSLESEDFADYYCLQYTNYPLTFGAGTKLELKR
For B1, the Kd in assay [1] was found to be 0.2 nM; in assay [2], 0.4 nM; in [3] it was 2.8 nM; in [4], 0.2 nM; in assay [5], 0.5 nM.

B2: chimeric human IgG1 anti-HLA-DR 44H10 antibody (antibody, V domains shown)
VH: QVQLKESGPGLVAPSQSLSITCTVSGFSLTSYGVHWVRQPPGKGLEWLGVIWAGGSINYNSALMSRLSISKDNFKSQVFLKMSSLQTDDTAMYYCARAYGDYVHYAMDYWGQGTSVTASS
VL: DIQMTQSPSSLSASLGQRVSLTCRASQEISGYLTWLQQKPDGTIKRLVYAASTLDSGVPKRFSGSRSGSDYSLTISSLESEDFADYYCLQYTNYPLTFGAGTKLELKR
In the case of B2, the Kd in assay [6] is 199 nM; in assay [7] it was 1.5 nM.

B3: V17 (antibody, V domains shown)
VH: QVTLKESGPVLVKPTETLTLTCTVSGFSLTSYGVHWIRQPPGKALEWLAVIWAGGSISYSTSLMSRLTISKDTSKSQVVLTMTNMDPVDTATYYCARAYGDYVHYAMDYWGQGTLVTVSS
VL: DIQMTQSPSSLSASVGDRVTITCRASQEISGYLTWLQQKPGKAPKLLIYAASTLDSGVPSRFSGSGSGTDFTLTISSLQPEDFATYYCLQYTNYPLTFGQGTKLEIK
In the assay with BJAB cells, B3 registered an EC50 of 5.02 µg/mL.

B4: V19 (R66 back-mutation) (antibody, V domains shown)
VH: QVTLKESGPVLVKPTETLTLTCTVSGFSLTSYGVHWIRQPPGKALEWLAVIWAGGSISYSTSLMSRLTISKDTSKSQVVLTMTNMDPVDTATYYCARAYGDYVHYAMDYWGQGTLVTVSS
VL: DIQMTQSPSSLSASVGDRVTITCRASQEISGYLTWLQQKPGKAPKLLIYAASTLDSGVPSRFSGSRSGTDFTLTISSLQPEDFATYYCLQYTNYPLTFGQGTKLEIK
The molecule B4 showed an EC50 with BJAB cells of 2.02 µg/mL.

B5: V14 with the V71K and F78V mutations in the VH (antibody, V domains shown)
VH: QVQLQESGPGLVKPSETLSLTCTVSGFSLTSYGVHWIRQPPGKGLEWIGVIWAGGSINYNSALMSRVTISKDTSKNQVSLKLSSVTAADTAVYYCARAYGDYVHYAMDYWGQGTLVTVSS
VL: DIQMTQSPSSLSASVGDRVTITCRASQEISGYLTWLQQKPGKAPKLLIYAASTLDSGVPSRFSGSGSGTDFTLTISSLQPEDFATYYCLQYTNYPLTFGQGTKLEIK
As for B5, the Kd in [8] was found to be 206 nM.

B6: V20 (K60 back-mutation) (antibody, V domains shown)
VH: QVTLKESGPVLVKPTETLTLTCTVSGFSLTSYGVHWIRQPPGKALEWLAVIWAGGSISYSTSLMSRLTISKDTSKSQVVLTMTNMDPVDTATYYCARAYGDYVHYAMDYWGQGTLVTVSS
VL: DIQMTQSPSSLSASVGDRVTITCRASQEISGYLTWLQQKPGKAPKLLIYAASTLDSGVPKRFSGSGSGTDFTLTISSLQPEDFATYYCLQYTNYPLTFGQGTKLEIK
B6: in the assay with BJAB cells, the response was half-maximal at 2.21 µg/mL (EC50).

B7: humanized 44H10 variant V21 (antibody, V domains shown)
VH: QVTLKESGPVLVKPTETLTLTCTVSGFSLTSYGVHWIRQPPGKALEWLAVIWAGGSISYSTSLMSRLTISKDTSKSQVVLTMTNMDPVDTATYYCARAYGDYVHYAMDYWGQGTLVTVSS
VL: DIQMTQSPSSLSASVGDRVTITCRASQEISGYLTWLQQKPGKAPKLLIYAASTLDSGVPKRFSGSRSGTDFTLTISSLQPEDFATYYCLQYTNYPLTFGQGTKLEIK
In the case of B7, the Kd in assay [6] turned out to be 221 nM; in assay [8], 157 nM.

These data come from patent publication US20250312438A1 (published 2025).
